This passage reports Kd results from the Immune Epitope Database (IEDB).

Some targets named below: HLA-A*02:06; HLA-A*02:03; HLA-A*02:02; HLA-A*03:01; HLA-A*33:01; HLA-A*11:01; HLA-A*31:01; HLA-A*68:01.
Common to all, as to test: IEDB peptide-MHC binding, purified MHC/competitive/radioactivity; filed as Kd, often an IC50 or EC50 that approximates it; ≥ and ≤ were set here for values at or beyond the usual limits of such assays
The mark [1] stands for this setting: source organism: SARS coronavirus Tor2.
Where [2] appears, read: source organism: Lymphocytic choriomeningitis virus (strain Armstrong).
Setting [3] is: source organism: Vaccinia virus WR.
Where [4] appears, read: source organism: Dengue virus 4 Philippines/H241/1956.
Setting [5] is: source organism: Dengue virus 2 Jamaica/1409/1983.

Consider ALIARCWYL, for which the dissociation constant Kd (as a rule, the equilibrium constant for the complex coming apart) with HLA-A*02:06 (setting [1]) was 0.982 nM; with HLA-A*02:03 (setting [1]) it was 17.1 nM; with HLA-A*02:02 (setting [1]), 0.196 nM.

ALMDLLMFS: the equilibrium dissociation constant (Kd) in the test with HLA-A*02:06 (setting [2]) amounted to 13.8 nM; in the test with HLA-A*02:03 (setting [2]) it was 103 nM; in the test with HLA-A*02:02 (setting [2]), 0.936 nM.

On to ALTDVEKRI, for which the dissociation constant Kd was found to be 14400 nM in the test with HLA-A*02:06 (setting [3]), 1490 nM with HLA-A*02:03 (setting [3]) and 74.2 nM in the test with HLA-A*02:02 (setting [3]).

As for AQFLYLYAL, the Kd was found to be 0.346 nM in the test with HLA-A*02:06 (setting [1]), 6.23 nM with HLA-A*02:03 (setting [1]) and 0.92 nM with HLA-A*02:02 (setting [1]).

For the sequence AVITETIPI, the values for the Kd with HLA-A*02:06 (setting [3]), in the test with HLA-A*02:03 (setting [3]) and with HLA-A*02:02 (setting [3]) were 6.46 nM, 43.1 nM and 324 nM, respectively.

In the case of DIMTSTRTI, the figures for the dissociation constant Kd with HLA-A*02:06 (setting [3]), with HLA-A*02:03 (setting [3]) and with HLA-A*02:02 (setting [3]) were ≥ 21800 nM, 78.6 nM and 3450 nM, respectively.

As for DTCGASINIT, the Kd was ≥ 69800 nM with HLA-A*02:06 (setting [3]), ≥ 70400 nM in the test with HLA-A*02:03 (setting [3]) and ≥ 23600 nM with HLA-A*02:02 (setting [3]).

For the sequence DTCLLAISAV, the values for the dissociation constant Kd in the test with HLA-A*02:06 (setting [3]), in the test with HLA-A*02:03 (setting [3]) and with HLA-A*02:02 (setting [3]) were 106 nM, 93.1 nM and 2460 nM, respectively.

Consider DTDIVNNFI, for which the Kd with HLA-A*02:06 (setting [3]) is 15700 nM; in the test with HLA-A*02:03 (setting [3]), 19400 nM; with HLA-A*02:02 (setting [3]), 9320 nM.

As to ELAAHQKKI, the Kd with HLA-A*02:03 (source organism: Homo sapiens) turned out to be 2650 nM.

As for ETKRNIARHL, the figures for the dissociation constant Kd with HLA-A*02:06 (setting [3]), with HLA-A*02:03 (setting [3]) and with HLA-A*02:02 (setting [3]) were ≥ 69800 nM, 12400 nM and ≥ 50000 nM, respectively.

Consider FLAHLQWFA, for which the Kd with HLA-A*02:06 (setting [1]) is 0.574 nM; with HLA-A*02:03 (setting [1]), 0.207 nM; with HLA-A*02:02 (setting [1]) it was 0.104 nM.

As to FTILEYLYI, the Kd is 267 nM with HLA-A*02:06 (setting [3]), 169 nM with HLA-A*02:03 (setting [3]) and 1560 nM with HLA-A*02:02 (setting [3]).

FTNSQIFNI: the Kd in the test with HLA-A*02:06 (setting [3]) turned out to be 4.79 nM; with HLA-A*02:03 (setting [3]) it was 7.11 nM; with HLA-A*02:02 (setting [3]), 6.89 nM.

As for FVTDYVHEGV, the Kd is 10.6 nM with HLA-A*02:06 (setting [3]), 1.68 nM with HLA-A*02:03 (setting [3]) and 23.8 nM with HLA-A*02:02 (setting [3]).

Take GLFGKGGVV: the Kd in the test with HLA-A*02:03 (setting [4]) was 9.95 nM.

For the sequence KLALITVSGL, the dissociation constant (Kd) with HLA-A*02:03 (setting [4]) turned out to be 7.32 nM.

As for KLASAIQKA, the Kd in the test with HLA-A*02:03 (setting [5]) turned out to be 17.9 nM.

On to LLALGCYSQV, for which, in the test with HLA-A*02:03 (source organism: Dengue virus 1 Brazil/97-11/1997), the Kd was determined as 12.7 nM.

Consider RVILAGPMPV, for which the equilibrium dissociation constant (Kd) was determined as 31.9 nM in the test with HLA-A*02:06 (setting [5]) and 7.76 nM in the test with HLA-A*02:03 (setting [5]).

As to VLMHPDFCK, the equilibrium dissociation constant (Kd) in the test with HLA-A*03:01 (setting [3]) was 8.68 nM; with HLA-A*33:01 (setting [3]), 1380 nM; with HLA-A*11:01 (setting [3]), 4.33 nM; with HLA-A*31:01 (setting [3]), 227 nM; in the test with HLA-A*68:01 (setting [3]), 259 nM.

Turning to VSSLVKNVNK, the Kd was 172 nM with HLA-A*03:01 (setting [3]); ≥ 50000 nM with HLA-A*33:01 (setting [3]); 40 nM with HLA-A*11:01 (setting [3]); 1180 nM with HLA-A*31:01 (setting [3]); 3360 nM with HLA-A*68:01 (setting [3]).

As to VVKWKRDEH, the Kd with HLA-A*03:01 (setting [2]) is ≥ 37200 nM; in the test with HLA-A*33:01 (setting [2]) it was ≥ 77700 nM; with HLA-A*11:01 (setting [2]) it was 187 nM; in the test with HLA-A*31:01 (setting [2]), ≥ 34800 nM; with HLA-A*68:01 (setting [2]), ≥ 77600 nM.

With VVVKDDPDHY, the dissociation constant (Kd) was ≥ 28000 nM with HLA-A*03:01 (setting [3]); ≥ 70000 nM with HLA-A*33:01 (setting [3]); ≥ 21600 nM with HLA-A*11:01 (setting [3]); ≥ 70000 nM with HLA-A*31:01 (setting [3]); ≥ 70200 nM in the test with HLA-A*68:01 (setting [3]).

With WIKNLETYTR, the dissociation constant Kd with HLA-A*03:01 (setting [3]) is ≥ 40900 nM; with HLA-A*33:01 (setting [3]) it was 1130 nM; with HLA-A*11:01 (setting [3]) it was 6310 nM; with HLA-A*31:01 (setting [3]), 361 nM; with HLA-A*68:01 (setting [3]), 38.1 nM.

On to YIPGTSVIR, for which the equilibrium dissociation constant (Kd) in the test with HLA-A*03:01 (setting [3]) is ≥ 78000 nM; with HLA-A*33:01 (setting [3]), 2900 nM; with HLA-A*11:01 (setting [3]), ≥ 77900 nM; in the test with HLA-A*31:01 (setting [3]), 664 nM; in the test with HLA-A*68:01 (setting [3]), 40.4 nM.

Regarding YMVTDKTAY, the equilibrium dissociation constant (Kd) in the test with HLA-A*03:01 (setting [3]) was ≥ 33700 nM; with HLA-A*33:01 (setting [3]), ≥ 44300 nM; with HLA-A*11:01 (setting [3]), ≥ 26200 nM; with HLA-A*31:01 (setting [3]), ≥ 47800 nM; in the test with HLA-A*68:01 (setting [3]), ≥ 40900 nM.

On to YSKFWYLEH, for which the Kd was ≥ 78000 nM with HLA-A*03:01 (setting [2]); 12400 nM with HLA-A*33:01 (setting [2]); ≥ 40900 nM with HLA-A*11:01 (setting [2]); 6010 nM with HLA-A*31:01 (setting [2]); ≥ 77600 nM in the test with HLA-A*68:01 (setting [2]).

For YTHGIVFDGK, the Kd in the test with HLA-A*03:01 (setting [3]) is 7.46 nM; with HLA-A*33:01 (setting [3]), 350 nM; with HLA-A*11:01 (setting [3]) it was 8.46 nM; with HLA-A*31:01 (setting [3]), 156 nM; with HLA-A*68:01 (setting [3]), 4.56 nM.

As for YTIERIFNAK, the Kd with HLA-A*03:01 (setting [3]) stood at 231 nM; in the test with HLA-A*33:01 (setting [3]), 875 nM; with HLA-A*11:01 (setting [3]) it was 36.2 nM; with HLA-A*31:01 (setting [3]) it was 3550 nM; in the test with HLA-A*68:01 (setting [3]), 10.3 nM.
